Target: Tat/FLAG (wild type HIV-1 Tat with FLAG tag, expressed in cells) (HIV-1)
Assay: cell-based or functional assay

endogenous Set9 (in Jurkat A2, HEK293 and HeLa cells) (from UniProt Q8WTS6 1-366)
decrease in Tat transactivation of the HIV LTR (luciferase) in HeLa cells after Set9 siRNA: 50 percent
